# T1: TROP-2 (EGP-1), human, on tumor cell lines (human, UniProt P09758 27-323)
# T1 construct: whole, on cells; 36-kDa cell-surface glycoprotein; also called epithelial glycoprotein-1
# T1 sequence (looked up): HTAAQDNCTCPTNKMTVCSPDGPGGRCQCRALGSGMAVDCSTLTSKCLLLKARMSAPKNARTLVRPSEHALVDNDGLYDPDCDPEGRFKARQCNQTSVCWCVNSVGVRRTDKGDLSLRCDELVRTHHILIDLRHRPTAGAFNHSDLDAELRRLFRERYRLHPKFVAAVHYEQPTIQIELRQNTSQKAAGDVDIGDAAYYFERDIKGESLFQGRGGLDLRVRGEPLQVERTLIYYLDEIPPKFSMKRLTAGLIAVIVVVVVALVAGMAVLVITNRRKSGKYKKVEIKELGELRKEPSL
# B1: hRS7 IgG (humanized anti-TROP-2 IgG1 monoclonal antibody, unconjugated) (antibody)
# chain 1: not shown
# chain 2: DIQLTQSPSSLSASVGDRVSITCKASQDVSIAVAWYQQKPGKAPKLLIYSASYRYTGVPDRFSGSGSGTDFTLTISSLQPEDFAVYYCQQHYITPLTFGAGTKVEIKRTVAAPSVFIFPPSDEQLKSGTASVVCLLNNFYPREAKVQWKVDNALQSGNSQESVTEQDSKDSTYSLSSTLTLSKADYEKHKVYACEVTHQGLSSPVTKSFNRGEC
# Legend:
# [1] = target: T1, TROP-2 (EGP-1), human, on tumor cell …; assay: cell binding on TROP-2-positive PC-3 human prostate carcinoma cells, three separate occasions
# [2] = target: Human neonatal receptor (FcRn) (human, UniProt P55899 24-297, limits assumed); assay: SPR (BIACore), low density FcRn biosensor chip, three runs of five dilutions
# Human neonatal receptor (FcRn), sequence (P55899 24-297 limits assumed): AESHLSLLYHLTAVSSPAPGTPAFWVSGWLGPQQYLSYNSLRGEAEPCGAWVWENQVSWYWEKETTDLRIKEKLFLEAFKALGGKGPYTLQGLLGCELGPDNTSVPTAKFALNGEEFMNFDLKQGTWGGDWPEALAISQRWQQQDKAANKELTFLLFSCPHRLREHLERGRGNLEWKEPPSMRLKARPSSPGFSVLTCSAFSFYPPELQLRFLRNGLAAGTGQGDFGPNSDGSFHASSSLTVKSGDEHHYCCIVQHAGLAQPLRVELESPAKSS
binder,measurement,setting,value
B1,Kd,[1],0.564 nM
same,Kd,[2],192 nM
